Source: patent US20170157188A1

Legend:
[1] = target: cell-surface mouse PD-1 on EL4 and RMA T lymphoma cells (mouse) (UniProt Q02242); experiment: flow cytometry competition on EL4 cells against mPD-L1-hFc at 2 µg/ml
[2] = target: mouse PD-1 (coated in the competition ELISA) (mouse) (UniProt Q02242); experiment: competition ELISA, blocks mouse PD-L1 biot on coated mouse PD-1; dimeric fraction more efficient than monomeric

Molecule | IC50 [1] | difference in EC50 against the monomeric scFv [2]
commercially available anti-mPD-1 antibody J43 (BioXCell) | 1.6 µg/mL | –
WRTG18616-encoded anti-mPD-1 scFv, dimeric fraction (scFv, part only; not given: glycine-serine linker, V domains shown, Dimer of two identical scFv polypeptides (first gel-filtration peak); one copy is given. VH and VL are joined in the real chain by a Gly-Ser linker of undisclosed letters and are given here as two chains.) VH: EVRLLESGGGLVKPEGSLKLSCVASGFTFSDYFMSWVRQAPGKGLEWVAHIYTKSYNYATYYSGSVKGRFTISRDDSRSMVYLQMNNLRTEDTATYYCTRDGSGYPSLDFWGQGTQVTVSS VL: YELTQPPSASVNVGETVKITCSGDQLPKYFADWFHQRSDQTILQVIYDDNKRPSGIPERISGSSSGTTATLTIRDVRAEDEGDYYCFSGYVDSDSKLYVFGSGTQLTVLHHHHHH | – | 1 log
